From US20190211098A1 (Genentech, published 2019)

Assays:
[1] = target: T1, NPDC1-His (human, UniProt Q9NQX5 35-181, limits assumed); assay: SPR, NPDC1-His binding to PILRA variant
T1 construct: not shown: His tag
T1 sequence: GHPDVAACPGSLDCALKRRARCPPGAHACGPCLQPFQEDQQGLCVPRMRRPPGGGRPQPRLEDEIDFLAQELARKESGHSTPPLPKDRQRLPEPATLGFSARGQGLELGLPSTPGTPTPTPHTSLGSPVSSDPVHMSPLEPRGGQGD

[2] = target: T2, Full length myc-DDK tagged PIANP, expressed on transfected 293T cells (human, UniProt Q8IYJ0 32-282); assay: flow cytometry, soluble PILRA-mFc 50 ug/ml on ligand-transfected 293T cells
T2 construct: Bought construct (Origene Cat. No. RC207868); also called myc-PIANP; C12orf53 (human); not shown: myc-DDK tag of the Origene construct RC207868
T2 sequence: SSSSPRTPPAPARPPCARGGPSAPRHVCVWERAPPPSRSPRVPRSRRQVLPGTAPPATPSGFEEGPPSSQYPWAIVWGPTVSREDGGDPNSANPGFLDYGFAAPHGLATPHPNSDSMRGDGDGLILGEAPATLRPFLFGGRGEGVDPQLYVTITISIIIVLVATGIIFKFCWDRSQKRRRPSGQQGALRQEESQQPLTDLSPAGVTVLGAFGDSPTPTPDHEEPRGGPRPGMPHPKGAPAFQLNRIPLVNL

[3] = target: T3, HSV-1 glycoprotein B, full length, expressed on transfected 293T cells (human herpes simplex virus type-1, UniProt P06437 31-904); assay: as above
T3 construct: Construct cloned from EF157316 (strain KOSc); also called HSV-1 gB; human herpesvirus 1 strain KOSc glycoprotein B (EF157316)

B1: PILRA G78 variant extracellular domain fused to murine IgG2a Fc (Fc fusion)
chain: QPSGSTGSGPSYLYGVTQPKHLSASMGGSVEIPFSFYYPWELATAPDVRISWRRGHFHGQSFYSTRPPSIHKDYVNRLFLNWTEGQKSGFLRISNLQKQDQSVYFCRVELDTRSSGRQQWQSIEGTKLSITQAVTTTTQRPSSMTTTWRLSSTTTTTGLRVTQGKRRSDSWHISLET
notes: Made in CHO cells, protein A/G purified; also called PILRA-mFc G78; PILRA-Fc G78; not shown: Fc region of murine IgG2a, C-terminal tag
Kd [1]: 16.8 nM
kon [1]: 22000 M⁻¹ s⁻¹
binding result [2]: binds
binding result [3]: binds
